Measurements from publication PMC6528580, “Relative catalytic efficiencies and transcript levels of three D‐ and two L‐lactate dehydrogenases for optically pure D‐lactate production in Sporolactobacillus inulinus” (MicrobiologyOpen, 2018).

Substrate: CC(=O)C(=O)O
Test: purified protein
Assay type: biochemical, Sporolactobacillus inulinus
Settings: 0.4 mM NADH, pyruvate 0.05-40 mM

B1: D-LDH1 (Sporolactobacillus inulinus CASD) (protein)
chain: MKLFMYGVQAHEKEIIRAWADAHAIDIETTADFLSEKTVDRAKDYDGICIQQPVPLGAAKLYATLKSYGIKQIATRTAGYDMIDLQEAEKNELIVTNVPAYSPYAVAELAVTQAMQLVRHVSQFQQRIAANDFRWDGLMSREIRSMTVGIVGTGRIGATAAQLFKGLGAKIIGFDQYPNDRLKDLIEYRSSLEDVLKEADIVSLHTPLFDSTRHMINARTLKLMKKSAYLINIARGALIDTEALIDALESGEIAGAALDTFENETVINKNLSGQSLNDPLLEKLIAMDQVLLTPHVGFFTETAIRNIVEGALNSVLEVLQTGTSKSRVKPAVTQ
notes: N-terminal His-tag (pET-28a) removed by enterokinase; E. coli BL21(DE3)
Work on B1 yielded a Km (pH 6.0, 35 °C) of 0.47 ± 0.04 mM, a Vmax (pH 6.0, 35 °C) of 62.7 µmol/min/mg and a kcat (pH 6.0, 35 °C) of 75.8 ± 0.3 s⁻¹. It also gave a kcat/Km (pH 6.0, 35 °C) of 161000 ± 6000 M⁻¹ s⁻¹.

B2: L-LDH1 (Sporolactobacillus inulinus CASD) (protein)
chain: MSETVRRVGVVGIGNVGKAAASAVLHENIADELYISDIDSERAKGEAWDFADSIELTPSRTRVLEVPLEGLAVCDVILVAVTERSQIPTQSRLELLKGTAAITYDIVPKLRKAGFKGTYVIATNPCDIITYLFYKLSGLPKNHVIGTGTALDSMRLRRQLSQVIGDVDPRSINAFMIGEHGDSQIAAWSQATVGGQPLDQFEEDNVDEFGPIDRDQVEDAARHFGWEIHTRKGNTQFGIGNALAFFAKSILNDARVVTAASVIQNGEYGQNDLAIGVPIILGRNGVERIIKFRLSEKEQEGFNGSAELIKGYIKQTLEEHEETTAN
notes: as for B1
For B2, the Km (pH 7.0, 45 °C) was 4.1 ± 0.12 mM, the Vmax (pH 7.0, 45 °C) was 5.2 µmol/min/mg and the kcat (pH 7.0, 45 °C) was 5.9 ± 0.1 s⁻¹. For the same protein, the kcat/Km (pH 7.0, 45 °C) was 1400 ± 100 M⁻¹ s⁻¹.

B3: D-LDH3 (Sporolactobacillus inulinus CASD) (protein)
chain: MKIIMFSVRDDEEAAIREWEKKTGVQVDINRLELDAETAQLTKGYDGIVIQQRSHISNPAVYETLQKNGLRQLTSRTAGYDMIDLEQASERGLVVTNVPAYSPNSVAELALTQTMRLIRNLPLFDARGAEQDFRWAGLMAREIRSLTVGIIGAGRIGGTVARLFKALGATVIANDIVERVELKDIVTYVSKEELLQAADVVTLHVPLMDSTTQLIDADALALMKNDAVLINASRGPVVDTDALIAALQNKQIAGAALDTLNGEEHFFNQDLCGKELPSEQLKVLRTLPNVLITPHIGFYTNKAVQNMVEISLNDVLAILKTGTSEHQLNKVAVEN
notes: N-terminal His-tag (pET-28a) removed by enterokinase; E. coli BL21(DE3); homodimer hypothesised from identical DLDH744
For B3, the Km (pH 5.5, 30 °C) was 3.1 ± 0.08 mM, the Vmax (pH 5.5, 30 °C) was 9.2 µmol/min/mg and the kcat (pH 5.5, 30 °C) was 10.7 ± 0.2 s⁻¹. For the same protein, the kcat/Km (pH 5.5, 30 °C) was 3500 ± 200 M⁻¹ s⁻¹.

B4: L-LDH2 (Sporolactobacillus inulinus CASD) (protein)
chain: MRKYAIIGLGHVGAAVAFQLVSRGIADELILIDTNEGLARAEQLDLQDMQGRIDTRTIIKINDYSELADTDILFITAGNILAYKEKQAQGNRWAEFEYTKDIVQDIAPKVKASGFHGVAIDTMNPCDAITQYFQENTGLSRQQVFATGTFLDTARMQKVVSDQFDCDPKNVSGYVYGEHGESQFTAWSTVRVNGLDITELAKERNLNLDDLEEAARRGGWEVYKGKGYTSWAISTCAVKLSQAVLSDAHAACICSCYSEKYGTYVGQPAIIGKNGIEEVLTLPLTTEEEAKFKHSADTIKEKFQTFEKQTN
notes: as for B1
Protein B4 has a Km (pH 7.0, 40 °C) of 6.8 ± 0.19 mM, a Vmax (pH 7.0, 40 °C) of 1.9 µmol/min/mg and a kcat (pH 7.0, 40 °C) of 2.3 ± 0.1 s⁻¹. It also gave a kcat/Km (pH 7.0, 40 °C) of 300 ± 100 M⁻¹ s⁻¹.

B5: D-LDH2 (Sporolactobacillus inulinus CASD) (protein)
chain: MAFKIIAYGVEPYEEHLYSELNKYGFELTLVNDLLTADNGDLAKGHDGVLLFVNCLADRANLEKFNDYGINYVFTRTAGFNHIDLQAAADLGIKVARVPAYSPNAIAELAVYLGTSLLRHTVYTTARTSKLNFTVTETNFSHEVHKIKVGIVGTGHIGCVEAELYKGLGAKLLGYDIFQSDFAKKLVEFKELDELLAESDIVSLHLPYFPGKNENFVGEDFIGKMKDGAILINTARGELVDEAAVAKAIKSGKLEGFGADVLTDEARFFGKDFSDGTEFPDATIKELIELYPKVLITPHVAAMTDVAVSNMISTSYDNFNAAIKGESLGRAEVELPEPAKK
notes: as for B1
In the case of B5, the Km (pH 7.5, 30 °C) is reported as 1.4 ± 0.09 mM, the Vmax (pH 7.5, 30 °C) is reported as 38.1 µmol/min/mg and the kcat (pH 7.5, 30 °C) is reported as 44.7 ± 0.3 s⁻¹. For the same protein, the kcat/Km (pH 7.5, 30 °C) was 32000 ± 2000 M⁻¹ s⁻¹.
